Here are results for one protein from patent publication US20130158095.

This series deals with TK substrate 1 (HTRF KinEASE-TK kit; Cisbio Inc.).

B1: EML4-ALK fusion polypeptide v1 having the FLAG tag at the N-terminus (protein)
chain: GFAGSLDDSISAASTSDVQDRLSALESRVQQQEDEITVLKAALADVLRRLAISEDHVASVKKSVSSKGQPSPRAVIPMSCITNGSGANRKPSHTSAVSIAGKETLSSAAKSGTEKKKEKPQGQREKKEESHSNDQSPQIRASPSPQPSSQPLQIHRQTPESKNATPTKSIKRPSPAEKSHNSWENSDDSRNKLSKIPSTPKLIPKVTKTADKHKDVIINQEGEYIKMFMRGRPITMFIPSDVDNYDDIRTELPPEKLKLEWAYGYRGKDCRANVYLLPTGEIVYFIASVVVLFNYEERTQRHYLGHTDCVKCLAIHPDKIRIATGQIAGVDKDGRPLQPHVRVWDSVTLSTLQIIGLGTFERGVGCLDFSKADSGVHLCVIDDSNEHMLTVWDWQKKAKGAEIKTTNEVVLAVEFHPTDANTIITCGKSHIFFWTWSGNSLTRKQGIFGKYEKPKFVQCLAFLGNGDVLTGDSGGVMLIWSKTTVEPTPGKGPKVYRRKHQELQAMQMELQSPEYKLSKLRTSTIMTDYNPNYCFAGKTSSISDLKEVPRKNITLIRGLGHGAFGEVYEGQVSGMPNDPSPLQVAVKTLPEVCSEQDELDFLMEALIISKFNHQNIVRCIGVSLQSLPRFILLELMAGGDLKSFLRETRPRPSQPSSLAMLDLLHVARDIACGCQYLEENHFIHRDIAARNCLLTCPGPGRVAKIGDFGMARDIYRASYYRKGGCAMLPVKWMPPEAFMEGIFTSKTDTWSFGVLLWEIFSLGYMPYPSKSNQEVLEFVTSGGRMDPPKNCPGPVYRIMTQCWQHQPEDRPNFAIILERIEYCTQDPDVINTALPIEYGPLVEEEEKVPVRPKDPEGVPPLLVSQQAKREEERSPAAPPPLPTTSSGKAAKKPTAAEVSVRVPRGPAVEGGHVNMAFSQSNPPSELHRVHGSRNKPTSLWNPTYGSWFTEKPTKKNNPIAKKEPHERGNLGLEGSCTVPPNVATGRLPGASLLLEPSSLTANMKEVPLFRLRHFPCGNVNYGYQQQGLPLEAATAPGAGHYEDTILKSKNSMNQPGP
Regarding B1, the “count of HTRF (that is, phosphorylation of the peptide substrate)” value was “increased by about 12 times by the addition of ATP compare to no addition of ATP”.
